Assay results from patent publication US20230125550A1 (ARCELLX, published 2023).

T1: recombinant human CD123-Fc (human, UniProt P26951 19-305)
T1 construct: not shown: Fc part of CD123-Fc
T1 sequence: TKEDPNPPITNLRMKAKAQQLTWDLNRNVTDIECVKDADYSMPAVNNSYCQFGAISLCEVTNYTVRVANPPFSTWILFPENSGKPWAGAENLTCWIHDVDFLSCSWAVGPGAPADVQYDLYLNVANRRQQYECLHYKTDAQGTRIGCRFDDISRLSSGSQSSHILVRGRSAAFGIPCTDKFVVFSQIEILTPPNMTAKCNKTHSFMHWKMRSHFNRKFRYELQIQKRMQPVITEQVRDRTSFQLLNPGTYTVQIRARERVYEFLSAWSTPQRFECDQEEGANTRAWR


The binders below were run against T1, recombinant human CD123-Fc (assay: phage ELISA, A450 target/A450 IgG1-Fc).
Outline: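 Phage rescued with VCSM13 helper phage from phagemid colonies picked from panning output were tested on plates coated with goat anti-human IgG1-Fc antibody that carried either recombinant human target or IgG1-Fc. Bound phage were detected with HRP-conjugated anti-M13 antibody at 450 nm. The ELISA ratio is target absorbance over IgG1-Fc absorbance, averaged across all screened wells holding the clone.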

Binder | ELISA_avg [ratio]
SEQ ID NO 682 (designed binder) MGSWVEFRDRLDAIETRLWALGGSEAELAAFEKEIAAFESELQAYKGKGNPEVEWLRYEAAEIRMVLQAYRHN | 4.2
SEQ ID NO 705 (designed binder) MGSWVEFWDRLWAIEDRLWALGGSEAELAAFEKEIAAFESELQAYKGKGNPEVEHLRHYAADIRVWLQAYRHN | 4.5
SEQ ID NO 683 (designed binder) MGSWMEFIDRLDAIEHRLWALGGSEAELAAFEKEIAAFESELQAYKGKGNPEVEFLREEAAEIRMYLQAYRHN | 4.3
SEQ ID NO 684 (designed binder) MGSWTEFVWRLDAIEWRLEALGGSEAELAAFEKEIAAFESELQAYKGKGNPEVEFLREEAAEIRDWLQAYRHN | 4.2
SEQ ID NO 695 (designed binder) MGSWWEFEDRLDAIEYRLFALGGSEAELAAFEKEIAAFESELQAYKGKGNPEVEFLREEAAFIRIFLQAYRHN | 4.9
SEQ ID NO 688 (designed binder) MGSWFEFVDRLTAIQVRLWALGGSEAELAAFEKEIAAFESELQAYKGKGNPEVEYLREEAALIRYSLQAYRHN | 5.1
SEQ ID NO 693 (designed binder) MGSWVEFEYRLDAITERLLALGGSEAELAAFEKEIAAFESELQAYKGKGNPEVEILREEAAFIRQWLQAYRHN | 3.9
SEQ ID NO 690 (designed binder) MGSWYEFMVRLDAIEERLFALGGSEAELAAFEKEIAAFESELQAYKGKGNPEVEFLREEAASIRYHLQAYRHN | 4.1
SEQ ID NO 706 (designed binder) MGSWYEFADRLWAIEDRLWALGGSEAELAAFEKEIAAFESELQAYKGKGNPEVEFLRYYAADIRWVLQAYRHN | 4
SEQ ID NO 707 (designed binder) MGSWYEFEERLYAIEDRLYALGGSEAELAAFEKEIAAFESELQAYKGKGNPEVEFLRQEAADIRLMLQAYRHN | 11.5
SEQ ID NO 686 (designed binder) MGSWYEFYDRLDAIEWRLWALGGSEAELAAFEKEIAAFESELQAYKGKGNPEVEWLRDEAAQIRDFLQAYRHN | 6.2
SEQ ID NO 685 (designed binder) MGSWVEFYDRLYAIEVRLLALGGSEAELAAFEKEIAAFESELQAYKGKGNPEVEFLRQEAAEIRDWLQAYRHN | 5.8
SEQ ID NO 694 (designed binder) MGSWWEFLDRLDAIEMRLFALGGSEAELAAFEKEIAAFESELQAYKGKGNPEVEYLREEAALIRNMLQAYRHN | 9
SEQ ID NO 689 (designed binder) MGSWFEFLDRLDAIEERLWALGGSEAELAAFEKEIAAFESELQAYKGKGNPEVEWLREEAAVIRDSLQAYRHN | 12.2
SEQ ID NO 687 (designed binder) MGSWVEFYDRLDAIEHRLDALGGSEAELAAFEKEIAAFESELQAYKGKGNPEVEWLRDEAAFIRDMLQAYRHN | 3.4
SEQ ID NO 696 (designed binder) MGSWWEFESRLDAIFMRLTALGGSEAELAAFEKEIAAFESELQAYKGKGNPEVEDLREDAAFIREFLQAYRHN | 3.7

More lines, now with the values ahead:

ELISA_avg [ratio] | Binder
4.2 | SEQ ID NO 713 (designed binder) MGSWYEFWDRLEAIEDRLWALGGSEAELAAFEKEIAAFESELQAYKGKGNPEVEFLRYSAAEIRYQLQAYRHN
4.2 | SEQ ID NO 708 (designed binder) MGSWTEFEWRLYAIEDRLMALGGSEAELAAFEKEIAAFESELQAYKGKGNPEVEFLRDEAADIRQYLQAYRHN
4.6 | SEQ ID NO 720 (designed binder) MGSWYEFWDRLEAIEERLWALGGSEAELAAFEKEIAAFESELQAYKGKGNPEVEYLRLEAADIRRILQAYRHN
4.1 | SEQ ID NO 711 (designed binder) MGSWEEFEDRLWAIEDRLWALGGSEAELAAFEKEIAAFESELQAYKGKGNPEVEILRYDAAYIREILQAYRHN
6.1 | SEQ ID NO 722 (designed binder) MGSWYEFENRLEAIEERLWALGGSEAELAAFEKEIAAFESELQAYKGKGNPEVEMLREEAAFIRDWLQAYRHN
11.3 | SEQ ID NO 718 (designed binder) MGSWYEFYNRLDAIEDRLWALGGSEAELAAFEKEIAAFESELQAYKGKGNPEVEYLRQEAADIRGQLQAYRHN
3.4 | SEQ ID NO 717 (designed binder) MGSWYEFEWRLMAIEDRLWALGGSEAELAAFEKEIAAFESELQAYKGKGNPEVEYLRHEAAEIRDVLQAYRHN
8.7 | SEQ ID NO 709 (designed binder) MGSWIEFESRLWAIEDRLLALGGSEAELAAFEKEIAAFESELQAYKGKGNPEVEFLRLEAADIREDLQAYRHN
3.2 | SEQ ID NO 716 (designed binder) MGSWYEFDSRLMAIEDRLWALGGSEAELAAFEKEIAAFESELQAYKGKGNPEVEYLRQEAAEIRMILQAYRHN
3.7 | SEQ ID NO 714 (designed binder) MGSWVEFESRLAAIEHRLWALGGSEAELAAFEKEIAAFESELQAYKGKGNPEVEELREYAAEIRDWLQAYRHN
4.8 | SEQ ID NO 724 (designed binder) MGSWYEFENRLGAIGDRLWALGGSEAELAAFEKEIAAFESELQAYKGKGNPEVEWLRDEAAYIRAVLQAYRHN
5.1 | SEQ ID NO 710 (designed binder) MGSWFEFEDRLDAIWDRLWALGGSEAELAAFEKEIAAFESELQAYKGKGNPEVEFLRMDAAMIRYILQAYRHN
7.6 | SEQ ID NO 715 (designed binder) MGSWWEFEHRLFAIEDRLWALGGSEAELAAFEKEIAAFESELQAYKGKGNPEVEFLRDYAAEIRDYLQAYRHN
5.4 | SEQ ID NO 721 (designed binder) MGSWYEFEERLWAIEERLYALGGSEAELAAFEKEIAAFESELQAYKGKGNPEVEYLRYEAAWIRDFLQAYRHN
6.2 | SEQ ID NO 723 (designed binder) MGSWYEFEYRLEAIEDRLWALGGSEAELAAFEKEIAAFESELQAYKGKGNPEVEYLREEAAWIRVWLQAYRHN
6.4 | SEQ ID NO 719 (designed binder) MGSWWEFHDRLEAIEDRLWALGGSEAELAAFEKEIAAFESELQAYKGKGNPEVEYLRIEAADIRRQLQAYRHN
